{
  "source": "the supplement of paper PMC10567573",
  "parents": {"B1": {"name": "NEUROD6 (parent)", "chain": "YHSPELTTPPGHGTLDNSKSMKPY"}},
  "data": [
    {"variants_of": "B1", "experiment": "protein stability index of a GFP-peptide fusion (GPS, HEK-293T) (PSI 1-6); higher = more stable", "settings": "c terminus: a fixed tail appended", "values": [
      {"variant": "YHSPELTTPPGHGTLDISKSMKPY", "note": "[N17I]", "protein stability index": 2.23},
      {"variant": "YHSPELTTPPGHGTLDESKSMKPY", "note": "[N17E]", "protein stability index": 2.68},
      {"variant": "YHSPELTTPPGHGTLDWSKSMKPY", "note": "[N17W]", "protein stability index": 2.51},
      {"variant": "YHSPELTTPPGHGTLDMSKSMKPY", "note": "[N17M]", "protein stability index": 1.55},
      {"variant": "YHSPELTTPPGHGTLDLSKSMKPY", "note": "[N17L]", "protein stability index": 1.72},
      {"variant": "YHSPELTTPPGHGTLDASKSMKPY", "note": "[N17A]", "protein stability index": 2.51},
      {"variant": "YHSPELTTPPGHGTLDYSKSMKPY", "note": "[N17Y]", "protein stability index": 1.88},
      {"variant": "YHSPELTTPPGHGTLDTSKSMKPY", "note": "[N17T]", "protein stability index": 2.15},
      {"variant": "YHSPELTTPPGHGTLDQSKSMKPY", "note": "[N17Q]", "protein stability index": 2.52},
      {"variant": "YHSPELTTPPGHGTLDFSKSMKPY", "note": "[N17F]", "protein stability index": 2.14},
      {"variant": "YHSPELTTPPGHGTLDRSKSMKPY", "note": "[N17R]", "protein stability index": 2.01},
      {"variant": "YHSPELTTPPGHGTLDHSKSMKPY", "note": "[N17H]", "protein stability index": 1.99},
      {"variant": "YHSPELTTPPGHGTLDDSKSMKPY", "note": "[N17D]", "protein stability index": 2.21},
      {"variant": "YHSPELTTPPGHGTLDVSKSMKPY", "note": "[N17V]", "protein stability index": 2.15},
      {"variant": "YHSPELTTPPGHGTLDGSKSMKPY", "note": "[N17G]", "protein stability index": 2.68},
      {"variant": "YHSPELTTPPGHGTLDSSKSMKPY", "note": "[N17S]", "protein stability index": 2.3},
      {"variant": "YHSPELTTPPGHGTLDCSKSMKPY", "note": "[N17C]", "protein stability index": 1.69},
      {"variant": "YHSPELTTPPGHGTLDNSSSMKPY", "note": "[K19S]", "protein stability index": 2.17},
      {"variant": "YHSPELTTPPGHGTLDNSMSMKPY", "note": "[K19M]", "protein stability index": 2.37},
      {"variant": "YHSPELTTPPGHGTLDNSFSMKPY", "note": "[K19F]", "protein stability index": 1.85},
      {"variant": "YHSPELTTPPGHGTLDNSCSMKPY", "note": "[K19C]", "protein stability index": 2.05},
      {"variant": "YHSPELTTPPGHGTLDNSQSMKPY", "note": "[K19Q]", "protein stability index": 2.24},
      {"variant": "YHSPELTTPPGHGTLDNSGSMKPY", "note": "[K19G]", "protein stability index": 2.21},
      {"variant": "YHSPELTTPPGHGTLDNSDSMKPY", "note": "[K19D]", "protein stability index": 2.85},
      {"variant": "YHSPELTTPPGHGTLDNSLSMKPY", "note": "[K19L]", "protein stability index": 1.96},
      {"variant": "YHSPELTTPPGHGTLDNSHSMKPY", "note": "[K19H]", "protein stability index": 2.07},
      {"variant": "YHSPELTTPPGHGTLDNSWSMKPY", "note": "[K19W]", "protein stability index": 1.5},
      {"variant": "YHSPELTTPPGHGTLDNSPSMKPY", "note": "[K19P]", "protein stability index": 2.22},
      {"variant": "YHSPELTTPPGHGTLDNSTSMKPY", "note": "[K19T]", "protein stability index": 2.35},
      {"variant": "YHSPELTTPPGHGTLDNSISMKPY", "note": "[K19I]", "protein stability index": 2.33},
      {"variant": "YHSPELTTPPGHGTLDNSNSMKPY", "note": "[K19N]", "protein stability index": 2.44},
      {"variant": "YHSPELTTPPGHGTLDNSESMKPY", "note": "[K19E]", "protein stability index": 2.59},
      {"variant": "YHSPELTTPPGHGTLDNSYSMKPY", "note": "[K19Y]", "protein stability index": 1.9},
      {"variant": "YHSPELTTPPGHGTLDNSRSMKPY", "note": "[K19R]", "protein stability index": 1.92},
      {"variant": "YHSPELTTPPGHGTLDNSVSMKPY", "note": "[K19V]", "protein stability index": 2.39},
      {"variant": "YHSPELTTPPGHGTLDNSASMKPY", "note": "[K19A]", "protein stability index": 2.3},
      {"variant": "YHSPELTTPPGHGTLYNSKSMKPY", "note": "[D16Y]", "protein stability index": 2.05},
      {"variant": "YHSPELTTPPGHGTLCNSKSMKPY", "note": "[D16C]", "protein stability index": 2.66},
      {"variant": "YHSPELTTPPGHGTLPNSKSMKPY", "note": "[D16P]", "protein stability index": 2.74},
      {"variant": "YHSPELTTPPGHGTLKNSKSMKPY", "note": "[D16K]", "protein stability index": 1.86},
      {"variant": "YHSPELTTPPGHGTLWNSKSMKPY", "note": "[D16W]", "protein stability index": 2.19},
      {"variant": "YHSPELTTPPGHGTLANSKSMKPY", "note": "[D16A]", "protein stability index": 1.65},
      {"variant": "YHSPELTTPPGHGTLTNSKSMKPY", "note": "[D16T]", "protein stability index": 2.05},
      {"variant": "YHSPELTTPPGHGTLENSKSMKPY", "note": "[D16E]", "protein stability index": 2.32},
      {"variant": "YHSPELTTPPGHGTLINSKSMKPY", "note": "[D16I]", "protein stability index": 1.81},
      {"variant": "YHSPELTTPPGHGTLMNSKSMKPY", "note": "[D16M]", "protein stability index": 2.45},
      {"variant": "YHSPELTTPPGHGTLQNSKSMKPY", "note": "[D16Q]", "protein stability index": 2.59},
      {"variant": "YHSPELTTPPGHGTLHNSKSMKPY", "note": "[D16H]", "protein stability index": 2.46},
      {"variant": "YHSPELTTPPGHGTLRNSKSMKPY", "note": "[D16R]", "protein stability index": 1.63},
      {"variant": "YHSPELTTPPGHGTLGNSKSMKPY", "note": "[D16G]", "protein stability index": 1.56},
      {"variant": "YHSPELTTPPGHGTLNNSKSMKPY", "note": "[D16N]", "protein stability index": 2.27},
      {"variant": "YHSPELTTPPGHGTLVNSKSMKPY", "note": "[D16V]", "protein stability index": 2.18},
      {"variant": "YHSPELTTPPGHGTLSNSKSMKPY", "note": "[D16S]", "protein stability index": 2.26},
      {"variant": "YHSPELTTPPGHGTLFNSKSMKPY", "note": "[D16F]", "protein stability index": 1.75},
      {"variant": "YHSPELTTPPGHGTLLNSKSMKPY", "note": "[D16L]", "protein stability index": 1.98},
      {"variant": "YHSPELTTPPGHGTLDNSKDMKPY", "note": "[S20D]", "protein stability index": 2.28},
      {"variant": "YHSPELTTPPGHGTLDNSKCMKPY", "note": "[S20C]", "protein stability index": 1.86},
      {"variant": "YHSPELTTPPGHGTLDNSKAMKPY", "note": "[S20A]", "protein stability index": 2.04},
      {"variant": "YHSPELTTPPGHGTADNSKSMKPY", "note": "[L15A]", "protein stability index": 2.17},
      {"variant": "YHSPELTTPPGHGTIDNSKSMKPY", "note": "[L15I]", "protein stability index": 2.17},
      {"variant": "YHSPELTTPPGHGTRDNSKSMKPY", "note": "[L15R]", "protein stability index": 2},
      {"variant": "YHSPELTTPPGHGTEDNSKSMKPY", "note": "[L15E]", "protein stability index": 2.12},
      {"variant": "YHSPELTTPPGHGTSDNSKSMKPY", "note": "[L15S]", "protein stability index": 2.35},
      {"variant": "YHSPELTTPPGHGTHDNSKSMKPY", "note": "[L15H]", "protein stability index": 2.36},
      {"variant": "YHSPELTTPPGHGTMDNSKSMKPY", "note": "[L15M]", "protein stability index": 1.9},
      {"variant": "YHSPELTTPPGHGTFDNSKSMKPY", "note": "[L15F]", "protein stability index": 1.77},
      {"variant": "YHSPELTTPPGHGTWDNSKSMKPY", "note": "[L15W]", "protein stability index": 1.82},
      {"variant": "YHSPELTTPPGHGTVDNSKSMKPY", "note": "[L15V]", "protein stability index": 2.26},
      {"variant": "YHSPELTTPPGHGTTDNSKSMKPY", "note": "[L15T]", "protein stability index": 3.01},
      {"variant": "YHSPELTTPPGHGTKDNSKSMKPY", "note": "[L15K]", "protein stability index": 2.2},
      {"variant": "YHSPELTTPPGHGTCDNSKSMKPY", "note": "[L15C]", "protein stability index": 2.1},
      {"variant": "YHSPELTTPPGHGTNDNSKSMKPY", "note": "[L15N]", "protein stability index": 2.46},
      {"variant": "YHSPELTTPPGHGTYDNSKSMKPY", "note": "[L15Y]", "protein stability index": 2.27},
      {"variant": "YHSPELTTPPGHGTDDNSKSMKPY", "note": "[L15D]", "protein stability index": 2.69},
      {"variant": "YHSPELTTPPGHGTQDNSKSMKPY", "note": "[L15Q]", "protein stability index": 2.77},
      {"variant": "YHSPELTTPPGHGTGDNSKSMKPY", "note": "[L15G]", "protein stability index": 2.24},
      {"variant": "YHSPELTTPPGHGMLDNSKSMKPY", "note": "[T14M]", "protein stability index": 2.33},
      {"variant": "YHSPELTTPPGHGKLDNSKSMKPY", "note": "[T14K]", "protein stability index": 2.07},
      {"variant": "YHSPELTTPPGHGWLDNSKSMKPY", "note": "[T14W]", "protein stability index": 2.37},
      {"variant": "YHSPELTTPPGHGNLDNSKSMKPY", "note": "[T14N]", "protein stability index": 3.02},
      {"variant": "YHSPELTTPPGHGRLDNSKSMKPY", "note": "[T14R]", "protein stability index": 2.07},
      {"variant": "YHSPELTTPPGHGFLDNSKSMKPY", "note": "[T14F]", "protein stability index": 2.07},
      {"variant": "YHSPELTTPPGHGLLDNSKSMKPY", "note": "[T14L]", "protein stability index": 1.86},
      {"variant": "YHSPELTTPPGHGYLDNSKSMKPY", "note": "[T14Y]", "protein stability index": 1.77},
      {"variant": "YHSPELTTPPGHGALDNSKSMKPY", "note": "[T14A]", "protein stability index": 2.44},
      {"variant": "YHSPELTTPPGHGGLDNSKSMKPY", "note": "[T14G]", "protein stability index": 1.87},
      {"variant": "YHSPELTTPPGHGQLDNSKSMKPY", "note": "[T14Q]", "protein stability index": 1.6},
      {"variant": "YHSPELTTPPGHGCLDNSKSMKPY", "note": "[T14C]", "protein stability index": 1.9},
      {"variant": "YHSPELTTPPGHGVLDNSKSMKPY", "note": "[T14V]", "protein stability index": 1.79},
      {"variant": "YHSPELTTPPGHGILDNSKSMKPY", "note": "[T14I]", "protein stability index": 1.9},
      {"variant": "YHSPELTTPPGHGDLDNSKSMKPY", "note": "[T14D]", "protein stability index": 2.27},
      {"variant": "YHSPELTTPPGHGHLDNSKSMKPY", "note": "[T14H]", "protein stability index": 2.24},
      {"variant": "YHSPELTTPPGHGELDNSKSMKPY", "note": "[T14E]", "protein stability index": 2.51},
      {"variant": "YHSPELTTPPGHGSLDNSKSMKPY", "note": "[T14S]", "protein stability index": 2.25}
    ]}
  ]
}
